± gives the standard deviation.
Assay: protein stability index of a GFP-peptide fusion (GPS, HEK-293T) (PSI 1-6); higher = more stable
[1] = treatment: DMSO, c terminus: a fixed tail appended
[2] = treatment: MLN4924 1 uM, 8 h, c terminus: a fixed tail appended
[3] = treatment: DMSO, c terminus: native
[4] = treatment: MLN4924 1 uM, 8 h, c terminus: native
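Also: 24-mer peptide tiles fused after GFP, lentivirally expressed, FACS-sorted into six equal bins by GFP/DsRed ratio, decoded by Illumina sequencing, PSI is the read-weighted mean bin number.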

Row | Sequence | protein stability index [1] | protein stability index [2] | protein stability index [3] | protein stability index [4]
1 | TVQIICNTGYRLQNNENNISCVER [CFHR2] | 2.44 ± 0.4 | 2.64 ± 0.25 | – | –
2 | MDSFKVVLEGPAPWGFRLQGGKDF [PDLIM7] | 2.1 ± 0.24 | 2.52 ± 0.23 | – | –
3 | CKAFSTCVSHLIIVTVHYGCASFI [OR10K2] | 2.88 ± 0.54 | 3.01 ± 0.57 | – | –
4 | KMAHVIAACLYLVCRTEGTPHMLL [BRF1] | 3.26 ± 0.64 | 2.84 ± 0.42 | – | –
5 | LKKKQKRQAELLEKRLQEIEELER [SRPK2] | 4.2 ± 0.29 | 4.24 ± 0.49 | – | –
6 | RQPRDELERVRVSCTIIFLASIFQ [TMEM175] | 2.11 ± 0.15 | 2.17 ± 0.28 | – | –
7 | NSNQATDIMETSGWKSMIQSHPHL [SPOPL] | 3.34 ± 0.22 | 3.48 ± 0.21 | – | –
8 | RLENRYEALAKQVASEMRFVQDLV [DAPK3] | 2.5 ± 0.16 | 2.45 ± 0.25 | – | –
9 | REEEEQVRAHAPRGNAPPRGKGL [KCNG1] | – | – | 3.15 ± 1.3 | 3.68 ± 0.65
10 | EAFLAQFSQLEDKFPGQSSFLWQR [TOR1AIP2] | 2.39 ± 0.56 | 2.5 ± 0.53 | – | –
11 | TPVDMWSVGCIFAEMFRRKPLFCG [CDK4] | 2.98 ± 0.97 | 2.64 ± 0.61 | – | –
12 | NSLRGVILDIHFLSQADFLVCTFS [FUT8] | 2.72 ± 0.71 | 2.79 ± 0.49 | – | –
13 | HVGELIIWDALDWTMQAYERNFWD [WDR41] | 2.33 ± 0.26 | 2.25 ± 0.26 | – | –
14 | RPLGIRAGPNGTLFVADAYKGLFE [APMAP] | 2.66 ± 0.27 | 2.61 ± 0.44 | – | –
15 | ETSPLPGMLAPAAGPAFDSDPEIS [PPFIA4] | 5.48 ± 0.29 | 5.38 ± 0.31 | – | –
16 | LLGEIDLEKESDTPLQQVSIEEIL [LSM1] | 4.97 ± 0.16 | 4.93 ± 0.27 | – | –
17 | RLTREVEATRRALIDRMVNLHQA [DDIT3] | – | – | 3.44 ± 0.073 | 3.83 ± 0.32
18 | DPEVFKEMMRFIYTGRAPNLDKMA [SPOPL] | 2.25 ± 0.32 | 2.41 ± 0.26 | – | –
19 | EALGHMFMYFLRGSLPWQGLKADT [CSNK1G1] | 3.63 ± 0.22 | 3.19 ± 0.4 | – | –
20 | VTGLMEATQMMVDIDGDVLVFLEL [RHOBTB2] | 3.31 ± 0.2 | 3.29 ± 0.8 | – | –
21 | NEARHNFGIVEIDGMLYILGGEDG [GAN] | 2.63 ± 0.37 | 2.72 ± 0.4 | – | –
22 | PNNKEIPSHHPTDPVELRRLNFQT [PTPRD] | 4.15 ± 0.18 | 4.35 ± 0.081 | – | –

Row | Sequence | protein stability index [1] | protein stability index [2] | protein stability index [3] | protein stability index [4]
23 | GLLKYCSLLVHGFKPACMSEIKNL [TENT5D] | 3.48 ± 0.69 | 2.59 ± 1.2 | – | –
24 | LSLPYLPSGTPELEVPKPGQPSEP [CHIT1] | 5.09 ± 0.22 | 5.21 ± 0.15 | – | –
25 | TDANLPSGGKGFKLRRQPSEPKRS [RAB22A] | 4.88 ± 0.41 | 5.08 ± 0.17 | – | –
26 | ALVRTRMQAQASIEGAPEVTMSSL [SLC25A25] | 3.6 ± 0.34 | 3.59 ± 0.33 | – | –
27 | NLETNEWRYVSSLPQPLAAHAGAV [KLHL14] | 2.64 ± 0.36 | 2.87 ± 0.37 | – | –
28 | ILAVSFAPLIQPCHSESGKSRLVQ [PCMTD2] | 2.23 ± 0.59 | 1.93 ± 0.25 | – | –
29 | EGREAPALVAAGGAPEDDEEDDGR [DENND6A] | 5.68 ± 0.29 | 5.72 ± 0.3 | – | –
30 | YEGGHIKGAVNLHMEEEVEDFLLK [CDC25A] | 4.6 ± 0.42 | 4.51 ± 0.076 | – | –
31 | IRVVGRGAFGIVHLCLRKADQKLV [NEK8] | 3.02 ± 0.59 | 2.74 ± 0.81 | – | –
32 | KKEELLFDDGDDIMATLGFGDSPK [FBF1] | 4.54 ± 0.2 | 4.59 ± 0.27 | – | –
33 | WPPSFLSEFRALQFSLMLCAFVGA [SPNS1] | 3.23 ± 0.53 | 2.85 ± 0.64 | – | –
34 | MTGLALKHMFERSFTQGEGARPLS [MATN2] | 2.69 ± 0.28 | 2.93 ± 0.42 | – | –
35 | KILHTAWHPAENIIAIAATNNLYI [PPP2R2C] | 2.81 ± 0.54 | 2.93 ± 0.53 | – | –
36 | RNLGKVVHYAKVQLRFQHSQDVSD [PLEKHN1] | 2.49 ± 0.44 | 2.6 ± 0.33 | – | –
37 | LLCPLCQEEEQAETPMAPVPLGPL [TRIM15] | 3.38 ± 0.67 | 3.73 ± 0.35 | – | –
38 | MAAAAEERMAEEGGGGQGDGGSSL [FBXO28] | 5.45 ± 0.29 | 5.57 ± 0.33 | – | –
39 | ISFTLYLIGFCMFVLSLVKKHYRL [CDS2] | 2.29 ± 0.48 | 2.44 ± 0.53 | – | –
40 | MATYLRYVRRLDFFEKPDYDYLRK [CSNK1G3] | 2.31 ± 0.42 | 2.32 ± 0.12 | – | –
41 | EYQPLQIETYGPHVPELEMLGRLG [MNAT1] | 3.18 ± 0.28 | 3.76 ± 0.31 | – | –
42 | SNVQEVRCPVTVCGDVHGQFHDLM [PPP2CA] | 3.54 ± 0.41 | 3.49 ± 0.31 | – | –
43 | VGTMVGADILAGREDNSGSDVLIG [SLC35F2] | 4.79 ± 0.26 | 4.55 ± 0.22 | – | –
44 | LENREEPWVKELQDSKEMKQLLDS [ZNF449] | 5.49 ± 0.18 | 5.36 ± 0.23 | – | –

Row | Sequence | protein stability index [1] | protein stability index [2] | protein stability index [3] | protein stability index [4]
45 | AVDGILHMFTPKLDKMLDPQVWRE [SLC6A17] | 2.27 ± 0.34 | 2.53 ± 0.25 | – | –
46 | IEPLVPEEKMETKTESSGIETEPT [EPB41L3] | 5.45 ± 0.31 | 5.46 ± 0.51 | – | –
47 | QEAAQLDMLLEKLPQVAEEISGPL [FLOT1] | 4.81 ± 0.29 | 4.76 ± 0.18 | – | –
48 | TTDPDLILEVLRSSPMVQVDEKGE [LARP4] | 4.61 ± 0.32 | 4.73 ± 0.24 | – | –
49 | SSMLTGILWDTLLRLCAWGLASWP [POMT2] | 3.12 ± 0.62 | 2.66 ± 0.61 | – | –
50 | VNDHLLNFVRERTLDKRWRVRKEA [PDS5B] | 2.74 ± 0.44 | 3.08 ± 0.35 | – | –
51 | KQKYFYKGGLVWDENSSDGRYVKE [CLK3] | 3.53 ± 0.2 | 3.62 ± 0.043 | – | –
52 | VRLQSQRPSMASELMPSSRLWSLS [SLC25A39] | 2.64 ± 0.32 | 2.58 ± 0.17 | – | –
53 | EMLAAACQMFLGKTEAEIAHIALE [FLOT1] | 3.15 ± 0.81 | 2.78 ± 0.34 | – | –
54 | CMPLVCTAIFYTLMTCEMLNRRNG [EDNRA] | 3.29 ± 0.24 | 3.58 ± 0.93 | – | –
55 | GQRQLMVPARDGTSCKLTDLRGVC [ADAMTSL2] | 3.08 ± 0.28 | 3.01 ± 0.16 | – | –
56 | QGAPASSFVYVNPEDGRIFAQRTF [PCDHGC5] | 2.57 ± 0.27 | 2.78 ± 0.35 | – | –
57 | LLFAGSSLASQVHAAAVNGDKGAL [INVS] | 2.61 ± 0.34 | 2.76 ± 0.21 | – | –
58 | LSTNDKTIKLWKITERDKRPEGYN [PPP2R2C] | 3.6 ± 0.28 | 3.79 ± 0.61 | – | –
59 | CNQCGKCFIQSSHLIRHQITHTRE [ZNF8] | 4.28 ± 0.19 | 4.47 ± 0.21 | – | –
60 | VGLAVVNGQLMAVGGFDGTTYLKT [KLHL20] | 2.69 ± 0.54 | 2.23 ± 0.19 | – | –
61 | DVAVHMPCLGHTFNAGIQQAFQLP [ZBED1] | 2.53 ± 0.36 | 2.8 ± 0.36 | – | –
62 | DLFDLCDRTFTLKTVLMIAIQLLS [CSNK1G1] | 2.6 ± 0.43 | 2.33 ± 0.42 | – | –
63 | EDVARPTQRLWDFTQSGPIVSRAT [GALNT9] | 3.99 ± 0.056 | 3.87 ± 0.33 | – | –
64 | FDVVVILTCSLSFLLCARSLLRGF [MCOLN1] | 3.38 ± 0.31 | 2.98 ± 0.54 | – | –
65 | RQLLCLIDYYESKIRKIHTQRQYK [CEP70] | 2.44 ± 0.37 | 2.95 ± 0.25 | – | –
66 | ATEQAATQESTFQELCEGLLEESD [NOP53] | 5.61 ± 0.19 | 5.58 ± 0.12 | – | –

Row | Sequence | protein stability index [1] | protein stability index [2] | protein stability index [3] | protein stability index [4]
67 | VHYAKVQLRFQHSQDVSDCYLELF [PLEKHN1] | 2.88 ± 0.82 | 2.76 ± 0.52 | – | –
68 | EEPVFEAVINWVKHAKKEREESLP [KLHL12] | 4.16 ± 0.48 | 4.17 ± 0.28 | – | –
69 | GVLRPTVRPGTPPDFILKVVIDKH [CTDNEP1] | 2.73 ± 0.35 | 2.67 ± 0.2 | – | –
70 | SVREVTQIKCIELKSELGRKWHKA [P2RY14] | 2.83 ± 0.24 | 3.23 ± 0.29 | – | –
71 | LLQCLEDLDANLRKLNSRLFVIRG [CRY1] | 2.67 ± 0.25 | 2.68 ± 0.29 | – | –
72 | KMNGSHRDQGSSALSGVGGIRLPN [IKZF1] | 4.1 ± 0.32 | 3.8 ± 0.12 | – | –
73 | LMDEGASSEKKRQSSADGSQPPKK [RBBP5] | 5.56 ± 0.36 | 5.53 ± 0.24 | – | –
74 | DRIRFTVNRRISIVGFGLYGSIHG [BTBD1] | 2.25 ± 0.61 | 2.32 ± 1.2 | – | –
75 | VKSIVVKGYNIWTGGPDACLRCWD [TLE6] | 2.37 ± 0.3 | 2.24 ± 0.43 | – | –
76 | AAARCVVLDCRPYLAFAASNVRGS [DUSP5] | 2.15 ± 0.55 | 2.2 ± 0.093 | – | –
77 | TTKCVRQYEGHVNEYAYLPLHVHE [DCAF4] | 2.92 ± 0.39 | 3.17 ± 0.2 | – | –
78 | GEPRKLLTQDWVQENYLEYRQVPG [MAGEA10] | 3.62 ± 0.17 | 4.15 ± 0.3 | – | –
79 | IWTAHYDPGHCFAESRELPVRCAG [ALG2] | 2.38 ± 0.32 | 2.4 ± 0.24 | – | –
80 | RDAAIKKLATEAGVEVIVRISHTL [CRY1] | 2.83 ± 0.92 | 2.62 ± 0.68 | – | –
81 | PAGVGVVVEATHMCMVMRGVQKMN [GCH1] | 2.41 ± 0.23 | 2.32 ± 0.34 | – | –
82 | QQWFPSLELGHWLYQTELVENECY [TOR1AIP2] | 2.55 ± 0.54 | 2.34 ± 0.47 | – | –
83 | LAKDFIRRLLVKDPKRRMTIAQSL [DAPK3] | 2.96 ± 0.3 | 2.7 ± 0.051 | – | –
84 | LSWLVWLLLLLLASLLPSARLASP [ADAMTS4] | 2.99 ± 0.65 | 2.5 ± 0.3 | – | –
85 | KKKKDKEKEKEKHKVKAEEEKKAK [BRD3] | 5.2 ± 0.3 | 5.66 ± 0.13 | – | –
86 | ADFESEDEGEEFDDWEDDYDYPEE [EID1] | 4.62 ± 0.29 | 4.87 ± 0.35 | – | –
87 | SLQNSLECAMETTEEQTRQERQGP [NECAB1] | 5.09 ± 0.17 | 5.22 ± 0.25 | – | –
88 | SELQAYIAQCQDSPTSGKFRRGSG [MCOLN1] | 4.21 ± 0.075 | 4.31 ± 0.15 | – | –

Reference: the supplement of paper PMC10567573
